Experimental data reported in patent US20200262877A1, “ION CHANNEL-BINDING PEPTIDES AND METHODS OF USE THEREOF” (priority 2017, published 2020).

Assays:
α4β2 = target: T1, α4β2 (Homo sapiens, UniProt P17787+P43681); assay: Ion channel panel (IonWorks Barracuda): α4β2; assay type: cell-based; details: 100% = no change, <100% = inhibition
T1 construct: host or cells: HEK293 or CHO
Protocol: (§1) This example describes a method for assaying ion channel activity in cells.
(§2) Peptides were screened in duplicate at final concentrations of 20 μM and 200 nM, as determined by amino acid analysis, and diluted into HEPES buffered physiological saline (HBPS). HEK293 or CHO cells from the American Type Culture Collection (ATCC) were transfected with the appropriate ion channel before use. HEK293 cells were grown in Dulbecco's Modified Eagle Medium/Nutrient Mixture F-12, and CHO cells were cultured in Ham's F-12 media. All cultures were supplemented with 10% fetal bovine serum, 100 U/ml penicillin G, 100 μg/ml streptomycin sulfate, and the appropriate selection antibiotics. Prior to use, cells were washed twice with Hank's Balanced Salt Solution, and treated with Accutase cell detachment solution (Sigma-Aldrich). Cells were then washed. Peptides and controls were incubated with cells for at least five minutes.
(§3) Percent inhibition was defined as: (1-(Ipeptide/Icontrol))×100%).
(§4) Percent values were calculated using the following formula: % activation=(IPeptide/Icontrol)×100%, where IPeptide is the current produced by co-application a peptide with agonist, and Icontrol refers to the current produced by stimulation in control. Control used for each ion channel is the reference compound matched to a particular channel, as illustrated in TABLE 10 below.

Nav1.5 = Nav1.5 (Homo sapiens, UniProt Q14524); assay: in vitro; details: 100% = no change; for Activity of Nav1.5 with peptide, expressed as a percentage of the reference compound: peptide at 0.2 μM; for Activity of Nav1.5 with peptide (percentage of the reference compound): peptide at 20 μM
Protocol: as §1, §2, §3, §4

hERG = hERG (Homo sapiens, UniProt Q12809); assay: in vitro; details: 100% = no change, <100% = inhibition
Protocol: as §1, §2, §3, §4

Kv1.1 = target: T2, Kv1.1 (Homo sapiens, UniProt Q09470); assay: cell-based; assay type: cell-based; details: 100% = no change, <100% = inhibition
T2 construct: host or cells: HEK293 or CHO
Protocol: as §1, §2, §3, §4

Kv1.3 = target: T3, Kv1.3 (Homo sapiens, UniProt P22001); assay: cell-based; assay type: cell-based; details: 100% = no change, <100% = inhibition
T3 construct: host or cells: HEK293 or CHO
Protocol: as §1, §2, §3, §4

Kv1.2 = target: T4, Kv1.2 (Homo sapiens, UniProt P16389); assay: cell-based; assay type: cell-based; details: 100% = no change, <100% = inhibition
T4 construct: host or cells: HEK293 or CHO
Protocol: as §1, §2, §3, §4

Cav2.2 = target: T5, Cav2.2 (Homo sapiens, UniProt Q00975); assay: cell-based; details: 100% = no change, <100% = inhibition
T5 construct: host or cells: HEK293 or CHO
Protocol: as §1, §2, §3, §4

Cav2.1 = target: T6, Cav2.1 (Homo sapiens, UniProt O00555); assay: cell-based; details: 100% = no change, <100% = inhibition
T6 construct: host or cells: HEK293 or CHO
Protocol: as §1, §2, §3, §4

Kv2.1 = target: T7, Kv2.1 (Homo sapiens, UniProt Q14721); assay: cell-based; details: 100% = no change, <100% = inhibition
T7 construct: host or cells: HEK293 or CHO
Protocol: as §1, §2, §3, §4

5HT3a = target: T8, 5HT3a (Homo sapiens, UniProt P46098); assay: Ion channel panel (IonWorks Barracuda): 5HT3a; assay type: cell-based
T8 construct: host or cells: HEK293 or CHO
T8 sequence (P46098 whole entry, looked up): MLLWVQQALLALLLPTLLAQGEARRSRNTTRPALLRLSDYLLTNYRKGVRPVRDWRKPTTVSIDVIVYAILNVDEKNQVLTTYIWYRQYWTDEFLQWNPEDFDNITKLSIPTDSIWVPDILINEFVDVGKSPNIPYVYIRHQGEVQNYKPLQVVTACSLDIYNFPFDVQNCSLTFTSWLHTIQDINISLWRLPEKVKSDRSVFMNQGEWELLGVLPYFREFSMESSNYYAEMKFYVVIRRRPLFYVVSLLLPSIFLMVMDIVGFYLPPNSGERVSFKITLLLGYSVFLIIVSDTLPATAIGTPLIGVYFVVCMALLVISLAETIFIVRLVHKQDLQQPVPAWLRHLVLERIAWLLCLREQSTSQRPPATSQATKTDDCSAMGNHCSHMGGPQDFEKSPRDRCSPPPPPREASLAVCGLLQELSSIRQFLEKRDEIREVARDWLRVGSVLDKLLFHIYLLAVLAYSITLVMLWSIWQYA
Protocol: as §1, §2, §3, §4

NR2A = target: T9, NR2A (Homo sapiens, UniProt Q12879); assay: Ion channel panel (IonWorks Barracuda): NR2A; assay type: cell-based; details: 100% = no change, <100% = inhibition
T9 construct: host or cells: HEK293 or CHO
Protocol: as §1, §2, §3, §4

Kir2.1 = target: T10, Kir2.1 (Homo sapiens, UniProt P63252); assay: Ion channel panel (IonWorks Barracuda): Kir2.1; assay type: cell-based; details: 100% = no change, <100% = inhibition
T10 construct: host or cells: HEK293 or CHO
Protocol: as §1, §2, §3, §4

NR2B = target: T11, NR2B (Homo sapiens, UniProt Q13224); assay: Ion channel panel (IonWorks Barracuda): NR2B; assay type: cell-based; details: 100% = no change, <100% = inhibition
T11 construct: host or cells: HEK293 or CHO
Protocol: as §1, §2, §3, §4

GABA = assay: Ion channel panel (IonWorks Barracuda): GABA; assay type: cell-based; details: 100% = no change, <100% = inhibition
Protocol: as §1, §2, §3, §4

TRPA1 = target: T12, TRPA1 (Homo sapiens, UniProt O75762); assay: Ion channel panel (IonWorks Barracuda): TRPA1; assay type: cell-based; details: 100% = no change, <100% = inhibition
T12 construct: host or cells: HEK293 or CHO
Protocol: as §1, §2, §3, §4

TRPV1 = target: T13, TRPV1 (Homo sapiens, UniProt Q8NER1); assay: Ion channel panel (IonWorks Barracuda): TRPV1; assay type: cell-based; details: 100% = no change, <100% = inhibition
T13 construct: host or cells: HEK293 or CHO
Protocol: as §1, §2, §3, §4

Nav1.7 = target: T14, Nav1.7 (Homo sapiens, UniProt Q15858); assay: cell-based; assay type: cell-based; details: 100% = no change; for Activity of Nav1.7 with peptide, expressed as a percentage of the reference compound: peptide at 0.2 μM; for Activity of Nav1.7 with peptide (percentage of the reference compound): peptide at 20 μM
T14 construct: host or cells: HEK293 or CHO
Protocol: as §1
as §2, with “Peptides were screened in duplicate at final concentrations of 20 μM and 200 nM, as determined by amino acid analysis, and diluted into HEPES buffered physiological saline (HBPS).” left out
as §3, §4

α3β4 = target: T15, α3β4 (Homo sapiens, UniProt P30926+P32297); assay: Ion channel panel (IonWorks Barracuda): α3β4; assay type: cell-based; details: 100% = no change, <100% = inhibition
T15 construct: host or cells: HEK293 or CHO
Protocol: as §1, §2, §3, §4

[1] = first of two Nav1.5 columns (probably TP1)
[2] = second of two Nav1.5 columns (probably TP2)
[3] = first of two Nav1.7 columns (probably TP1)
[4] = second of two Nav1.7 columns (probably TP2)

Nav1.5, sequence (Q14524 whole entry): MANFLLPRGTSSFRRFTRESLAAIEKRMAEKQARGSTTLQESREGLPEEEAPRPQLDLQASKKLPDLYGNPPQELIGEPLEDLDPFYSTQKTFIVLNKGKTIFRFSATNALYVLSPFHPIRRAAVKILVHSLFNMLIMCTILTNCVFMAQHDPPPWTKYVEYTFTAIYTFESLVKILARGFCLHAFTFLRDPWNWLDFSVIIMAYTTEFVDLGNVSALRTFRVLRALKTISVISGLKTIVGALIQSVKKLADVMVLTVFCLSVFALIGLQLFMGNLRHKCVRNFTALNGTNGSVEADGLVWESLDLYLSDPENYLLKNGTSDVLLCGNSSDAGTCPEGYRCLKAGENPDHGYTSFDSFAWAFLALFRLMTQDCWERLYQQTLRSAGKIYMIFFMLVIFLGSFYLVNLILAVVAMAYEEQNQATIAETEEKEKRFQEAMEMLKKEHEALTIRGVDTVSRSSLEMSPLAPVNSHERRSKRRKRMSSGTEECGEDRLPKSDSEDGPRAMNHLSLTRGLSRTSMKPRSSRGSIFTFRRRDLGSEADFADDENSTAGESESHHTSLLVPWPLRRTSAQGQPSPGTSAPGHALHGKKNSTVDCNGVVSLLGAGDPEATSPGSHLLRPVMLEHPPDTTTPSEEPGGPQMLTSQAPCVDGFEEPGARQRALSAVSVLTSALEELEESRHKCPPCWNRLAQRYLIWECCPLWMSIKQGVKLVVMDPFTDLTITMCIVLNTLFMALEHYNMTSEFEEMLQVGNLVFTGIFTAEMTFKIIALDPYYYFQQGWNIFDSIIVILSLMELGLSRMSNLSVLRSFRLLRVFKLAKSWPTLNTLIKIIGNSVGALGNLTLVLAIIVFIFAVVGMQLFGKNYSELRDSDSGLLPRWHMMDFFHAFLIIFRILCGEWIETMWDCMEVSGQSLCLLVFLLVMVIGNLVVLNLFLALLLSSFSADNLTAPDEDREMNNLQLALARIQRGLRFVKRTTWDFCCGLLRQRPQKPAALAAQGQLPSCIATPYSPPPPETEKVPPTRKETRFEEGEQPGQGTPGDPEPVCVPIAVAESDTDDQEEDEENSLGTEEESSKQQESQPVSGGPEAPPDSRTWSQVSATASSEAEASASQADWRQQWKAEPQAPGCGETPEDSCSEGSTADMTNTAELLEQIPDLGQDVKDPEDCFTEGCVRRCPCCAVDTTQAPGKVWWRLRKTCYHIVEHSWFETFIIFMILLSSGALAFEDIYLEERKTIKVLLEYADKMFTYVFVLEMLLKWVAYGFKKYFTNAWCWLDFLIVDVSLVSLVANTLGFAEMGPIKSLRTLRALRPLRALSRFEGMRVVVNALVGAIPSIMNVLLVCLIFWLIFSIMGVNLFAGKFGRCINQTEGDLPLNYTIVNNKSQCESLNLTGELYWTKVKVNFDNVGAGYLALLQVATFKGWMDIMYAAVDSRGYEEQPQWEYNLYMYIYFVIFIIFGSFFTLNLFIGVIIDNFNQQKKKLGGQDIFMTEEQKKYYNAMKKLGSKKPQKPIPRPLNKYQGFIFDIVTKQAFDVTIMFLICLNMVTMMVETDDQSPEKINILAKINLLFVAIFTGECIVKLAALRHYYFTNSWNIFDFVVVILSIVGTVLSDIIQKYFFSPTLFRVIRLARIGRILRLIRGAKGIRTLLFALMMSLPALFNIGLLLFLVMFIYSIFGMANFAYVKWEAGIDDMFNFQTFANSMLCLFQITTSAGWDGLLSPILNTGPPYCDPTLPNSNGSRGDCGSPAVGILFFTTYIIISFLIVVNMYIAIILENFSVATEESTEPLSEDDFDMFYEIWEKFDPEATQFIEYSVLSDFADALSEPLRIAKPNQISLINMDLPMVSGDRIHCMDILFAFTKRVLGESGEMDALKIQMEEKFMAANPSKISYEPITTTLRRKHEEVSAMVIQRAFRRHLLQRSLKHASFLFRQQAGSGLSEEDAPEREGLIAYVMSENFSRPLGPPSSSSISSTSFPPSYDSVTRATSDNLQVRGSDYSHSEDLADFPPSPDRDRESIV
T14 sequence (Q15858 whole entry): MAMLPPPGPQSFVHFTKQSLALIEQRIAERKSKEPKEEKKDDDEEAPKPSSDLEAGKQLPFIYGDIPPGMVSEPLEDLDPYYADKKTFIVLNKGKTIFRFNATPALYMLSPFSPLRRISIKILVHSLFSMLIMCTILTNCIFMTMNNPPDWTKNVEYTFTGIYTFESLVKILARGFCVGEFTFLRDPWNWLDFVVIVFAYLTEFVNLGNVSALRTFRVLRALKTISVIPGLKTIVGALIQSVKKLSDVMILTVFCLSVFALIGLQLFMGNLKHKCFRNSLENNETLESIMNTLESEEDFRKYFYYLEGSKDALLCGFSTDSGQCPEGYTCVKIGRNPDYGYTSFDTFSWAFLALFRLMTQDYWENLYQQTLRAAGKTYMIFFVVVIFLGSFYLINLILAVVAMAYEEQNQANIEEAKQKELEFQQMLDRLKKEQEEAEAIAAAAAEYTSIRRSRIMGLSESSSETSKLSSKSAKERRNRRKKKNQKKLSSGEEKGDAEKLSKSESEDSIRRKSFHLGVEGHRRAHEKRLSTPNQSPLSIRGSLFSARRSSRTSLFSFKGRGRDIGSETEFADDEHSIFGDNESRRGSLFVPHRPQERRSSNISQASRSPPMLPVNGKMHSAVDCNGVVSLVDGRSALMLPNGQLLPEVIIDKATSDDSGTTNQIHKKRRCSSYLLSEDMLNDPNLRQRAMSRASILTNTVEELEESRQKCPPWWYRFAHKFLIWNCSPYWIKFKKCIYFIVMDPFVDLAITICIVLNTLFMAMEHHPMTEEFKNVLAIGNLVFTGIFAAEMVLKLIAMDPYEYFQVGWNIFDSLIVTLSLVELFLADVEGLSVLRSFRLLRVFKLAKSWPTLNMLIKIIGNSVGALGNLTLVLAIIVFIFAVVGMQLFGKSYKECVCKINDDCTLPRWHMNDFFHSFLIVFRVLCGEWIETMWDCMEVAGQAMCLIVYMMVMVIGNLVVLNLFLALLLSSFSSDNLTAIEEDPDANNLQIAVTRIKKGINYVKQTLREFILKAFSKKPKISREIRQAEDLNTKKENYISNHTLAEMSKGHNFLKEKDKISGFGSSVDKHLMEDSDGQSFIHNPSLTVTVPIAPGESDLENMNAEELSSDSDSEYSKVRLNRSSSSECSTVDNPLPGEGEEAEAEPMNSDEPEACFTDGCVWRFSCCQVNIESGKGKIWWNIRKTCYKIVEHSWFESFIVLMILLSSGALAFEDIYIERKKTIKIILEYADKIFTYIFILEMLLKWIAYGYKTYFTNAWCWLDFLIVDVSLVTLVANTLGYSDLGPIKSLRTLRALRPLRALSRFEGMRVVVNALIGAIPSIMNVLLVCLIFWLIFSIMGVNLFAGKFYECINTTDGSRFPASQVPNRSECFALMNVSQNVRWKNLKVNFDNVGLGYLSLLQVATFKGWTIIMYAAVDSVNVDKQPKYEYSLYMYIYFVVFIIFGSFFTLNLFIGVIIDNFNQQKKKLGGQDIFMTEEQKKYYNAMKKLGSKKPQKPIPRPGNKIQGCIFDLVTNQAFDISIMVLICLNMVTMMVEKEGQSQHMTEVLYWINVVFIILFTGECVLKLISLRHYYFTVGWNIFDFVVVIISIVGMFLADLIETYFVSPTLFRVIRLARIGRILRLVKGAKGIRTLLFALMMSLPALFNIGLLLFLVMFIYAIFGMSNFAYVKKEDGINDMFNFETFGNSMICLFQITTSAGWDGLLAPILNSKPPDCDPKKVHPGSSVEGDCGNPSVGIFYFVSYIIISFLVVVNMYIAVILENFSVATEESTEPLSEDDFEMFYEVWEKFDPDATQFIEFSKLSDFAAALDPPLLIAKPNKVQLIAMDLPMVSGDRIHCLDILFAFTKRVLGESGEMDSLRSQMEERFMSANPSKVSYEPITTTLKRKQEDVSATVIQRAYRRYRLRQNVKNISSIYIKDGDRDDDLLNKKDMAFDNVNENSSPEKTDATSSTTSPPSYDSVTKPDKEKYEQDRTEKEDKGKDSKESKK
T10 sequence (P63252 whole entry): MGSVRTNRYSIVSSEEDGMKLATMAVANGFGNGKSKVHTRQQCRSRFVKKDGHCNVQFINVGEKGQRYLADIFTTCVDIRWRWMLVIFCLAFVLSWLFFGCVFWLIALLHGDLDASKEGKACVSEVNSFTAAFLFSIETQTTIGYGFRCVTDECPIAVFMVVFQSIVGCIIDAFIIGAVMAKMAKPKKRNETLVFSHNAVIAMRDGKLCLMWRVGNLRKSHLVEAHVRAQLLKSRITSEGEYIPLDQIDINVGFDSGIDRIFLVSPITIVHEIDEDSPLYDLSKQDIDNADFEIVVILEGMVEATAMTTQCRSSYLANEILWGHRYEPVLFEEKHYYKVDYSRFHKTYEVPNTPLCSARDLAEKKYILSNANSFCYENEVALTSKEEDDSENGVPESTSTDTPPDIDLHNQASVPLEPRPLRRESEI
T4 sequence (P16389 whole entry): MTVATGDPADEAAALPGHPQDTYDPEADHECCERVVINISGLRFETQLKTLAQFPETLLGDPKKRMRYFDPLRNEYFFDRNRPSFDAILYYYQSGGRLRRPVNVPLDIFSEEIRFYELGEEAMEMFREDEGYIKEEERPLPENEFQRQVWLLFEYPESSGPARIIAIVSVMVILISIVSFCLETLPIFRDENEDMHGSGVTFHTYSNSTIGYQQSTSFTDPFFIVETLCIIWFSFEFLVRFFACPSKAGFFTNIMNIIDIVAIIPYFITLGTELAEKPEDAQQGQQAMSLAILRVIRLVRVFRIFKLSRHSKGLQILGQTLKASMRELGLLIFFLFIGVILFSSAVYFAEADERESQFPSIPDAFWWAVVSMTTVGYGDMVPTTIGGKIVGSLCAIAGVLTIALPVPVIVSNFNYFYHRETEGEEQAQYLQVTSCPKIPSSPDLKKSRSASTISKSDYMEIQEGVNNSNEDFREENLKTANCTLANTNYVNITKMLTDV

2 (GSEVIRCSGSKQCYGPCKQQTGCTNSKCMNKVCKCYGCG) [compound 2]
Activity of a4b2 with peptide, expressed as a percentage of the reference compound (α4β2; peptide at 0.2 μM): 95% | Activity of a4b2 with peptide (percentage of the reference compound) (α4β2; peptide at 20 μM): 87% | Activity of Nav1.5 with peptide, expressed as a percentage of the reference compound (Nav1.5; [1]): 95% | Activity of Nav1.5 with peptide, expressed as a percentage of the reference compound (Nav1.5; [2]): 93% | Activity of Nav1.5 with peptide (percentage of the reference compound) (Nav1.5; [1]): 102% | Activity of Nav1.5 with peptide (percentage of the reference compound) (Nav1.5; [2]): 101% | Activity of hERG with peptide, expressed as a percentage of the reference compound (hERG; peptide at 0.2 μM): 97% | Activity of hERG with peptide (percentage of the reference compound) (hERG; peptide at 20 μM): 76% | Activity of Kv1.1 with peptide, expressed as a percentage of the reference compound (Kv1.1; peptide at 0.2 μM): 114% | Activity of Kv1.1 with peptide (percentage of the reference compound) (Kv1.1; peptide at 20 μM): 68% | Activity of Kv1.3 with peptide, expressed as a percentage of the reference compound (Kv1.3; peptide at 0.2 μM): 8% | Activity of Kv1.3 with peptide (percentage of the reference compound) (Kv1.3; peptide at 20 μM): 1% | Activity of Kv1.2 with peptide, expressed as a percentage of the reference compound (Kv1.2; peptide at 0.2 μM): 34% | Activity of Kv1.2 with peptide (percentage of the reference compound) (Kv1.2; peptide at 20 μM): 39% | Activity of Cav2.2 with peptide, expressed as a percentage of the reference compound (Cav2.2; peptide at 0.2 μM): 104% | Activity of Cav2.2 with peptide (percentage of the reference compound) (Cav2.2; peptide at 20 μM): 104% | Activity of Cav2.1 with peptide, expressed as a percentage of the reference compound (Cav2.1; peptide at 0.2 μM): 103% | Activity of Cav2.1 with peptide (percentage of the reference compound) (Cav2.1; peptide at 20 μM): 108% | Activity of Kv2.1 with peptide, expressed as a percentage of the reference compound (Kv2.1; peptide at 0.2 μM): 80% | Activity of Kv2.1 with peptide (percentage of the reference compound) (Kv2.1; peptide at 20 μM): 87% | Activity of 5HT3a with peptide (percentage of the reference compound) (5HT3a): 88% | Activity of 5HT3a with peptide, expressed as a percentage of the reference compound (5HT3a): 92% | Activity of NR2A with peptide, expressed as a percentage of the reference compound (NR2A; peptide at 0.2 μM): 102% | Activity of NR2A with peptide (percentage of the reference compound) (NR2A; peptide at 20 μM): 95% | Activity of Kir2.1 with peptide, expressed as a percentage of the reference compound (Kir2.1; peptide at 0.2 μM): 101% | Activity of Kir2.1 with peptide (percentage of the reference compound) (Kir2.1; peptide at 20 μM): 89% | Activity of NR2B with peptide, expressed as a percentage of the reference compound (NR2B; peptide at 0.2 μM): 118% | Activity of NR2B with peptide (percentage of the reference compound) (NR2B; peptide at 20 μM): 72% | Activity of GABA with peptide, expressed as a percentage of the reference compound (GABA; peptide at 0.2 μM): 104% | Activity of GABA with peptide (percentage of the reference compound) (GABA; peptide at 20 μM): 97% | Activity of TRPA1 with peptide, expressed as a percentage of the reference compound (TRPA1; peptide at 0.2 μM): 106% | Activity of TRPA1 with peptide (percentage of the reference compound) (TRPA1; peptide at 20 μM): 92% | Activity of TRPV1 with peptide, expressed as a percentage of the reference compound (TRPV1; peptide at 0.2 μM): 95% | Activity of TRPV1 with peptide (percentage of the reference compound) (TRPV1; peptide at 20 μM): 81% | Activity of Nav1.7 with peptide, expressed as a percentage of the reference compound (Nav1.7; [3]): 89% | Activity of Nav1.7 with peptide, expressed as a percentage of the reference compound (Nav1.7; [4]): 74% | Activity of Nav1.7 with peptide (percentage of the reference compound) (Nav1.7; [3]): 61% | Activity of Nav1.7 with peptide (percentage of the reference compound) (Nav1.7; [4]): 91% | Activity of a3b4 with peptide, expressed as a percentage of the reference compound (α3β4; peptide at 0.2 μM): 85% | Activity of a3b4 with peptide (percentage of the reference compound) (α3β4; peptide at 20 μM): 88%
